{
  "source": "patent US20040127421",
  "proteins": {"B1": {"name": "Proenzyme pro-MMP-9 (protein)", "chain": "APRQRQSTLVLFPGDLRTNLTDRQLAEEYLYRYGYTRVAEMRGESKSLGPALLLLQKQLSLPETGELDSATLKAMRTPRCGVPDLGRFQTFEGDLKWHHHNITYWIQNYSEDLPRAVIDDAFARAFALWSAVTPLTFTRVYSRDADIVIQFGVAEHGDGYPFDGKDGLLAHAFPPGPGIQGDAHFDDDELWSLGKGVVVPTRFGNADGAACHFPFIFEGRSYSACTTDGRSDGLPWCSTTANYDTDDRFGFCPSERLYTQDGNADGKPCQFPFIFQGQSYSACTTDGRSDGYRWCATTANYDRDKLFGFCPTRADSTVMGGNSAGELCVFPFTFLGKEYSTCTSEGRGDGRLWCATTSNFDSDKKWGFCPDQGYSLFLVAAHEFGHALGLDHSSVPEALMYPMYRFTEGPPLHKDDVNGIRHLYGPRPEPEPRPPTTTTPQPTAPPTVCPTGPPTVHPSERPTAGPTGPPSAGPTGPPTAGPSTATTVPLSPVDDACNVNIFDAIAEIGNQLYLFKDGKYWRFSEGRGSRPQGPFLIADKWPALPRKLDSVFEERLSKKLFFFSGRQVWVYTGASVLGPRRLDKLGLGADVAQVTGALRSGRGKMLLFSGRRLWRFDVKAQMVDPRSASEVDRMFPGVPLDTHDVFQYREKAYFCQDRFYWRVSSRSELNQVDQVGYVTYDILQCPED"}},
  "target": "T1, 19-mer (SEQ ID NO:11) PRCGNPDVANYNFFPRKPK",
  "T1 chain": "PRCGNPDVANYNFFPRKPK",
  "data": [
    {"protein": "B1", "values": [
      {"measurement": "conversion of pro-MMP-9 into prodomain and active enzyme by stromilysin (HPLC peak areas)", "result": "Titrating the standard splicing reaction with the 19-mer prevents the conversion of pro-MMP-9 into the prodomain and the active enzyme. Splicing can be inhibited in a dose dependent manner with micromolar 19-mer."}
    ]}
  ]
}
